Reference: US11111296B2, “Compositions and methods for treating cardiac dysfunction” (THE BROAD INSTITUTE, INC., priority 2015, dated 2021)

B1: S100A7: RAGE ligand, cachexia-inducing; sequence NP_002954.2 (protein)
chain: MSNTQAERSIIGMIDMFHKYTRRDDKIEKPSLLTMMKENFPNFLSACDKKGTNYLADVFEKKDKNEDKKIDFSEFLSLLGDIATDYHKQSHGAAPCSGGSQ
B2: S100A8/9: RAGE ligand, cachexia-inducing (protein)
chain 1: MLTELEKALNSIIDVYHKYSLIKGNFHAVYRDDLKKLLETECPQYIRKKGADVWFKELDINTDGAVNFQEFLILVIKMGVAAHKKSHEESHKE
chain 2: MTCKMSQLERNIETIINTFHQYSVKLGHPDTLNQGEFKELVRKDLQNFLKKENKNEKVIEHIMEDLDTNADKQLSFEEFIMLMARLTWASHEKMHEGDEGPGHHHKPGLGEGTP
B3: S100B: RAGE ligand, non-cachexia-inducing (protein)
chain: SELEKAMVALIDVFHQYSGREGDKHKLKKSELKELINNELSHFLEEIKEQEVVDKVMETLDNDGDGECDFQEFMAFVAMVTTACHEFFEHE
B4: S100P: RAGE ligand, non-cachexia-inducing (protein)
chain: MTELETAMGMIIDVFSRYSGSEGSTQTLTKGELKVLMEKELPGFLQSGKDKDAVDKLLKDLDANGDAQVDFSEFIVFVAAITSACHKYFEKAGLK

Tested on: myosin heavy chain in cells
Assay: cachexia functional assay (levels of myosin heavy chain in treated cells)
Type: cell-based
Settings: for cachexia-inducing activity of RAGE ligands: FIG. 8
Excerpt: The compounds that are thus designed or selected may further be tested in an in vitro, in vivo, or ex vivo assays to determine if they regulate RAGE. Such assays are known to one skilled in the art. In some embodiments, the assay is a cachexia functional assay as described herein and further described in PCT/US2014/068631, which is incorporated herewith in its entirety.
In studies described herein below, a refined model of the cachectic signal was obtained (FIG. 2). Functional sites on the RAGE polypeptide were determined using a combination of experiments mapping binding interface(s) of anti-RAGE antibodies with RAGE polypeptide using hydrogen-deuterium exchange (HDEX) reactions and cachexia functional assays. As described elsewhere herein, results of the cachexia functional assay indicate whether a candidate agent (e.g., a particular anti-RAGE antibody) has cachexia-inhibitory or cachexia-inducing activity, as measured, for example, by levels of myosin heavy chain in cells treated with the candidate agent relative to a control or baseline myosin heavy chain level.

Molecule	cachexia-inhibitory activity (levels of myosin heavy chain) (cells treated with various concentrations of FPS3 (FIG. 7B))	cachexia-inducing activity of RAGE ligands
CCCCCC(=Cc1ccccc1)CN(CCc1c[nH]c2ccccc12)C(=O)c1ccc(Cl)c([N+](=O)[O-])c1 [FPS3, reference compound]	had cachexia-inhibitory activity	–
B1	–	cachexia-inducing
B2	–	cachexia-inducing
B3	–	non-cachexia-inducing
B4	–	non-cachexia-inducing
